Laboratory results as given in US20170313754A1 (PROTAGONIST THERAPEUTICS, published 2017).
Numbered stars: 1 amine (or outer) side, 2 acyl side, 3 side chain; on linkers, the order of the positions; unused ones are H or OH. Bridge positions count the residues as written; N and C are the ends. Square brackets hold non-standard residues; d marks the D form. Primed or numbered codes have the meaning given here. Side chains are listed from the residue outwards. Ends that are not written are not given here. * marks the point of attachment. PEG3″ = NH2CH2CH2(OCH2CH2)3CH2CH2CO2H (PEG3 linker), NCCOCCOCCOCCCCC(=O)*; Ida = iminodiacetic acid, O=C(CN(CC(=O)[*:3])[*:1])[*:2]; γGlu = O=C(O)[C@H](CCC(=O)[*:2])N[*:1]; Palmitoyl = CCCCCCCCCCCCCCCC(=O)*; dapa = diaminopropionic acid; Lauroyl = CCCCCCCCCCCC(=O)*; Decanoyl = CCCCCCCCCC(=O)*; Isovaleryl = CC(C)CC(=O)*; Octanoyl = CCCCCCCC(=O)*; Albu = not defined here; Dap = NC[C@H](N)C(=O)O; Hexanoyl = CCCCCC(=O)*; Butyryl = CCCC(=O)*

T1: human ferroportin (SLC40A1) fused in frame with GFP, stably expressed in HEK293 cells (human, UniProt Q9NP59 1-571)
T1 sequence (looked up): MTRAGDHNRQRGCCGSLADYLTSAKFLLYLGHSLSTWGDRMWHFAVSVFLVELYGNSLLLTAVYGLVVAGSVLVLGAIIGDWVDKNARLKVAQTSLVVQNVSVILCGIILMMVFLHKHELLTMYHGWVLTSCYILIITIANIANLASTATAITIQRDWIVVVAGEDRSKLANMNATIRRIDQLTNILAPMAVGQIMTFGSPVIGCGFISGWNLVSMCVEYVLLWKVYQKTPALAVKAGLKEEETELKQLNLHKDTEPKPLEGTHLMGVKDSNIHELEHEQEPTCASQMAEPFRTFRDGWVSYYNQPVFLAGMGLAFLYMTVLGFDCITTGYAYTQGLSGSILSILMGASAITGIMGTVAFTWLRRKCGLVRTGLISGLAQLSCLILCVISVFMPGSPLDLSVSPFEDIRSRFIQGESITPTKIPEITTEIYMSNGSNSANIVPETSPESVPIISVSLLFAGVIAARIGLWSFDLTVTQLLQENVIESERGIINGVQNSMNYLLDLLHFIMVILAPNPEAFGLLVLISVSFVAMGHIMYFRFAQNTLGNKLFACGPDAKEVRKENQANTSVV


The binders below were run against T1, human ferroportin (SLC40A1) fused in … (assay: cell-based or functional assay).

Row | Binder | Potency EC50 (nM), ferroportin-GFP internalization/degradation
1 | DTHFPCIKFKPRSKGWVC (N-terminal isovaleric acid; K(butyric acid) at Lys 10; C-terminal amide) [Isovaleric acid-DTHFPCIKF-K(butyric acid)-PRSKGWVC-NH2] | 37 nM
2 | H-DTHICIAIF-NH2 [Hy-DTHICIAIF-NH2] | > 10000 nM
3 | Isovaleryl-HFPCIKFEPRSKGWVCK(Octanoyl)-NH2 (disulfide 4-16 (inferred)) [Isovaleric acid-HFPCIKFEPRSKGWVC-K(octanoic acid)-NH2] | > 300 nM
4 | DTHFPCIKFKPRSKGWVC (not fully specified; N-terminal isovaleric acid; K(octanoic acid) at Lys 10; C-terminal amide) [Isovaleric acid-DTHFPCIKF-K(octanoic acid)-PRSKGWVC-NH2] | 30 nM
5 | Isovaleryl-DTHFPCIKFEPK([γGlu-Palmitoyl])SKGWECK-NH2 (not fully specified (bridges); cysteine pairing not given here) [Isovaleric acid-DTHFPCIKFEPK(isoGlu-Palm)-SKGWECK-NH2] | 8 nM
6 | [Ida]THFPCIKFEPRSKGWVCK(Ac)-NH2 (disulfide 6-18 (inferred)) [[Ida]-THFPCIKFEPRSKGWVC-K(Ac)-NH2] | 502 nM
7 | Isovaleryl-DTHFPCIKFEPRSKGCK([Dap-Palmitoyl])K-NH2 (disulfide 6-16 (inferred)) [Isovaleric acid-DTHFPCIKFEPRSKGC-K(dapa-Palm)-K-NH2] | 10 nM
8 | H-DTHFPIICI-NH2 [Hy-DTHFPIICI-NH2] | > 10000 nM
9 | [Ida]THFPCIKFEPRSKGWVCK(Octanoyl)-NH2 (not fully specified (bridges); cysteine pairing not given here) [[Ida]-THFPCIKFEPRSKGWVC-K(octanoic acid)-NH2] | 129 nM
10 | [Ida]THFPCIKFEPRSKGWVCK(mysteric acid)-NH2 (disulfide 6-18 (inferred)) [Ida-THFPCIKFEPRSKGWVC-K(mysteric acid)-NH2] | 20 nM
11 | H-DTHFPIAIFICI-NH2 [Hy-DTHFPIAIFICI-NH2] | > 10000 nM
12 | DTHFPCIKFKPRSKGWVC (not fully specified; N-terminal isovaleric acid; K(mysteric acid) at Lys 10; C-terminal amide) [Isovaleric acid-DTHFPCIKF-K(mysteric acid)-PRSKGWVC-NH2] | 7 nM
13 | Isovaleryl-DTHAPCIKFEPRSKGWECK-NH2 (not fully specified (bridges); cysteine pairing not given here) [Isovaleric acid-DTHAPCIKFEPRSKGWECK-NH2] | > 10000 nM
14 | {4,4‑5,5‑6,6,6‑heptafluorohexanoic acid}-DTHFPCIKFGPRSKGWVCK-NH2 (disulfide 6-18 (inferred)) [4,4-5,5-6,6,6-Heptafluorohexanoic acid-DTHFPCIKFGPRSKGWVCK-NH2] | 480 nM
15 | DTHFPCIKFEPRSKGCKK (N-terminal isovaleric acid; K(isoglu-Palm) at Lys 18; C-terminal amide) [Isovaleric acid-DTHFPCIKFEPRSKGCK-K(isoglu-Palm)-NH2] | 4 nM
16 | {Palmitoyl-PEG3″}-DTHFPCIKFGPRSKGWVCK-NH2 (disulfide 6-18 (inferred)) [Palm-PEG3-DTHFPCIKFGPRSKGWVCK-NH2] | > 1000 nM
17 | H-DTHFPCIKFGPRSKGWVCK-NH2 (disulfide 6-18 (inferred)) [Hy-DTHFPCIKFGPRSKGWVCK-NH2] | > 1000 nM
18 | Isovaleryl-DTHFPCIKFEPRSK([Dap-Palmitoyl])GCK-NH2 (not fully specified (bridges); cysteine pairing not given here) [Isovaleric acid-DTHFPCIKFEPRS-K(dapa-Palm)-GCK-NH2] | 7 nM
19 | Isovaleryl-DTHFPCIKFEPK([Dap-Palmitoyl])SKGCK-NH2 (not fully specified (bridges); cysteine pairing not given here) [Isovaleric acid-DTHFPCIKFEP-K(dapa-Palm)-SKGCK-NH2] | 10 nM
20 | H-DTHFPIAIFAAICI-NH2 [Hy-DTHFPIAIFAAICI-NH2] | > 10000 nM
21 | DTHFPCIKFKPRSKGWVC (N-terminal isovaleric acid; K(decanoic acid) at Lys 10; C-terminal amide) [Isovaleric acid-DTHFPCIKF-K(decanoic acid)-PRSKGWVC-NH2] | 22 nM

Row | Binder | Potency EC50 (nM), ferroportin-GFP internalization/degradation
22 | [Ida]THFPCIKFEPRSKGWVCK(Decanoyl)-NH2 (disulfide 6-18 (inferred)) [[Ida]-THFPCIKFEPRSKGWVC-K(decanoic acid)-NH2] | 116 nM
23 | DTHFPCIKFKPRSKGWVC (not fully specified; N-terminal isovaleric acid; K(lauric acid) at Lys 10; C-terminal amide) [Isovaleric acid-DTHFPCIKF-K(lauric acid)-PRSKGWVC-NH2] | 10 nM
24 | Isovaleryl-DTHFPCIKFEPRSKK([γGlu-Palmitoyl])CK-NH2 (disulfide 6-16 (inferred)) [Isovaleric acid-DTHFPCIKFEPRSK-K(isoglu-Palm)-CK-NH2] | 4 nM
25 | Palmitoyl-DTHFPCIKFGPRSKGWVCK-NH2 (disulfide 6-18 (inferred)) [Palm-DTHFPCIKFGPRSKGWVCK-NH2] | > 1000 nM
26 | H-DTHFPIAIFAAGICI-NH2 [Hy-DTHFPIAIFAAGICI-NH2] | > 10000 nM
27 | DTHFPCIKFKPRSKGWECK (N-terminal isovaleric acid; K(isoGlu-Palm) at Lys 10; C-terminal amide) [Isovaleric acid-DTHFPCIKFK(isoGlu-Palm)-PRSKGWECK-NH2] | 6 nM
28 | Isovaleryl-DTHFPCIKFEPK([γGlu-Palmitoyl])SKGCK-NH2 (not fully specified (bridges); cysteine pairing not given here) [Isovaleric acid-DTHFPCIKFEP-K(isoglu-Palm)-SKGCK-NH2] | 5 nM
29 | Isovaleryl-DTHFPCIK([dapa-Palmitoyl])FEPRSKGCK-NH2 (not fully specified (bridges); cysteine pairing not given here) [Isovaleric acid-DTHFPCI-K(dapa-Palm)-FEPRSKGCK-NH2] | 17 nM
30 | Isovaleryl-DTHFPCIKFEPHSK(Albu)GCK-NH2 (not fully specified (bridges); cysteine pairing not given here; reading uncertain) [Isovaleric acid-DTHFPCIKFEPHS-K(Albu)-GCK-NH2] | 6 nM
31 | Isovaleryl-DTHFPCIKFEPRSKKWVCK-NH2 (disulfide 6-18 (inferred)) [Isovaleric acid-DTHFPCIKFEPRSKKWVCK-NH2] | 15 nM
32 | [Ida]THFPCIKFEPRSKGWVCK(Butyryl)-NH2 (disulfide 6-18 (inferred)) [[Ida]-THFPCIKFEPRSKGWVC-K(butyric acid)-NH2] | 355 nM
33 | Isovaleryl-DTHAPCIKFGPRSKGWVCK-NH2 (not fully specified (bridges); cysteine pairing not given here) [Isovaleric acid-DTHAPCIKFGPRSKGWVCK-NH2] | > 500 nM
34 | [Ida]THFPCIKFEPRSKGWVCK(Lauroyl)-NH2 (disulfide 6-18 (inferred)) [[Ida]-THFPCIKFEPRSKGWVC-K(lauric acid)-NH2] | 52 nM
35 | H-DTHFPIAIICI-NH2 [Hy-DTHFPIAIICI-NH2] | > 10000 nM
36 | H-DTHFPIAICI-NH2 [Hy-DTHFPIAICI-NH2] | > 10000 nM
37 | [Ida]THFPCIKFEPRSKGWVCK(Hexanoyl)-NH2 (disulfide 6-18 (inferred)) [[Ida]-THFPCIKFEPRSKGWVC-K(hexanoic acid)-NH2] | 191 nM
38 | Isovaleryl-DTHFPCIKAGPRSKGWVCK-NH2 (not fully specified (bridges); cysteine pairing not given here) [Isovaleric acid-DTHFPCIKAGPRSKGWVCK-NH2] | 50 nM
39 | H-DTHFPIAIFAICI-NH2 [Hy-DTHFPIAIFAICI-NH2] | > 10000 nM
40 | DTHFPCIKFKPRSKGWVC (N-terminal isovaleric acid; K(Ac) at Lys 10; C-terminal amide) [Isovaleric acid-DTHFPCIKF-K(Ac)-PRSKGWVC-NH2] | 29 nM
41 | DTHFPCIKFKPRSKGWVC (N-terminal isovaleric acid; K(hexanoic acid) at Lys 10; C-terminal amide) [Isovaleric acid-DTHFPCIKF-K(hexanoic acid)-PRSKGWVC-NH2] | 21 nM
42 | Isovaleryl-ATHFPCIKFGPRSKGWVCK-NH2 (disulfide 6-18 (inferred)) [Isovaleric acid-ATHFPCIKFGPRSKGWVCK-NH2] | 60 nM
